The results in this text go back to patent US20260015399A1 (Boehringer Ingelheim, published 2026).

The target of test [1] is T1, human NPY2 receptor (human, UniProt P49146 1-381).
T1 sequence (looked up): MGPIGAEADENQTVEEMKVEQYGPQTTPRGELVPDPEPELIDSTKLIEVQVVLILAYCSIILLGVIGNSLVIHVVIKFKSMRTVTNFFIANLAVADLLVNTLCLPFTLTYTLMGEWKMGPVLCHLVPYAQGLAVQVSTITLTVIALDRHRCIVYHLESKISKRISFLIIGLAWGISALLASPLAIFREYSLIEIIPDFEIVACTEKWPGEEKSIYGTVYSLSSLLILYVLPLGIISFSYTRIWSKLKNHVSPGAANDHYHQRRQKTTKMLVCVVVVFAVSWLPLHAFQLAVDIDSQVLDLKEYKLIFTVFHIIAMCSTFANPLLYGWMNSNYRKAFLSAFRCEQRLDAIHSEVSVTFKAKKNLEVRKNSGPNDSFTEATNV
Put plainly: cell-based or functional assay.

The next test deals with T2, human NPY5 receptor (human, UniProt Q15761 1-445).
T2 sequence (looked up): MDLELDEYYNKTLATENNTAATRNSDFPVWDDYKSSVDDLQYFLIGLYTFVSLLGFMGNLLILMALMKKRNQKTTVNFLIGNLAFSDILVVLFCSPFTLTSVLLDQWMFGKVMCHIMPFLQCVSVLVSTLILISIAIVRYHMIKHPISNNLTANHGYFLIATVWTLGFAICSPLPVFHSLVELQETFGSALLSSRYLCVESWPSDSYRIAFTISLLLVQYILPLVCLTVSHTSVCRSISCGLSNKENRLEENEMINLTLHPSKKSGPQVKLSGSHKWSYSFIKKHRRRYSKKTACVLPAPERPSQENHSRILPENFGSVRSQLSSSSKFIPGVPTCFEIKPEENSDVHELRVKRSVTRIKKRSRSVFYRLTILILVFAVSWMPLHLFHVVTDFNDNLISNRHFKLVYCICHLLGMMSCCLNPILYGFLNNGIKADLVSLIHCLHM
The test is described as follows: cell-based or functional assay.

For test [2], the target named is T1, human NPY2 receptor. The test is described as follows: RLB: displacement of 125I-PYY(1-36) from hNPY2R membranes. In general terms: In a radioligand displacement assay an active substance lowers the binding of a labelled ligand.

*1 amine or outer side, *2 acyl side, *3 side chain or, on linkers, in order; H or OH if unused. Side-chain parts run from the residue outwards. The star is where a group is joined. C18 diacid = O=C(O)CCCCCCCCCCCCCCCCC(=O)*; γGlu = O=C(O)[C@H](CCC(=O)[*:2])N[*:1]; Isovaleryl = CC(C)CC(=O)*; Ahx = NCCCCCC(=O)O

B1: Compound 145 (peptide)
peptide: Isovaleryl-APAK([Ahx-γGlu-C18 diacid])PEEDASPEELQRYYVSLRHYYNWLTRQRY-NH2
SMILES: CC(C)CC(=O)N[C@@H](C)C(=O)N1CCC[C@H]1C(=O)N[C@@H](C)C(=O)N[C@@H](CCCCNC(=O)CCCCCNC(=O)CC[C@H](NC(=O)CCCCCCCCCCCCCCCCC(=O)O)C(=O)O)C(=O)N1CCC[C@H]1C(=O)N[C@@H](CCC(=O)O)C(=O)N[C@@H](CCC(=O)O)C(=O)N[C@@H](CC(=O)O)C(=O)N[C@@H](C)C(=O)N[C@@H](CO)C(=O)N1CCC[C@H]1C(=O)N[C@@H](CCC(=O)O)C(=O)N[C@@H](CCC(=O)O)C(=O)N[C@@H](CC(C)C)C(=O)N[C@@H](CCC(N)=O)C(=O)N[C@@H](CCCNC(=N)N)C(=O)N[C@@H](Cc1ccc(O)cc1)C(=O)N[C@@H](Cc1ccc(O)cc1)C(=O)N[C@H](C(=O)N[C@@H](CO)C(=O)N[C@@H](CC(C)C)C(=O)N[C@@H](CCCNC(=N)N)C(=O)N[C@@H](Cc1c[nH]cn1)C(=O)N[C@@H](Cc1ccc(O)cc1)C(=O)N[C@@H](Cc1ccc(O)cc1)C(=O)N[C@@H](CC(N)=O)C(=O)N[C@@H](Cc1c[nH]c2ccccc12)C(=O)N[C@@H](CC(C)C)C(=O)N[C@H](C(=O)N[C@@H](CCCNC(=N)N)C(=O)N[C@@H](CCC(N)=O)C(=O)N[C@@H](CCCNC(=N)N)C(=O)N[C@@H](Cc1ccc(O)cc1)C(N)=O)[C@@H](C)O)C(C)C
By Ki is commonly meant the dissociation constant of the complex between target and ligand, obtained from inhibition or displacement. B1: the “EC50, HTRF cAMP Gi assay” value in the test with human NPY2 receptor [1] was 0.118 nM; in the test with human NPY5 receptor, over 5000 nM. The molecule further registered a Ki in the test with human NPY2 receptor [2] of 5.29 nM.

B2: Compound 147 (peptide)
peptide: Isovaleryl-APEK([Ahx-γGlu-C18 diacid])PEEDASPEEIQRYYVSLRHYYNWLTRQRY-NH2
SMILES: CC[C@H](C)[C@H](NC(=O)[C@H](CCC(=O)O)NC(=O)[C@H](CCC(=O)O)NC(=O)[C@@H]1CCCN1C(=O)[C@H](CO)NC(=O)[C@H](C)NC(=O)[C@H](CC(=O)O)NC(=O)[C@H](CCC(=O)O)NC(=O)[C@H](CCC(=O)O)NC(=O)[C@@H]1CCCN1C(=O)[C@H](CCCCNC(=O)CCCCCNC(=O)CC[C@H](NC(=O)CCCCCCCCCCCCCCCCC(=O)O)C(=O)O)NC(=O)[C@H](CCC(=O)O)NC(=O)[C@@H]1CCCN1C(=O)[C@H](C)NC(=O)CC(C)C)C(=O)N[C@@H](CCC(N)=O)C(=O)N[C@@H](CCCNC(=N)N)C(=O)N[C@@H](Cc1ccc(O)cc1)C(=O)N[C@@H](Cc1ccc(O)cc1)C(=O)N[C@H](C(=O)N[C@@H](CO)C(=O)N[C@@H](CC(C)C)C(=O)N[C@@H](CCCNC(=N)N)C(=O)N[C@@H](Cc1c[nH]cn1)C(=O)N[C@@H](Cc1ccc(O)cc1)C(=O)N[C@@H](Cc1ccc(O)cc1)C(=O)N[C@@H](CC(N)=O)C(=O)N[C@@H](Cc1c[nH]c2ccccc12)C(=O)N[C@@H](CC(C)C)C(=O)N[C@H](C(=O)N[C@@H](CCCNC(=N)N)C(=O)N[C@@H](CCC(N)=O)C(=O)N[C@@H](CCCNC(=N)N)C(=O)N[C@@H](Cc1ccc(O)cc1)C(N)=O)[C@@H](C)O)C(C)C
Consider B2, for which the “EC50, HTRF cAMP Gi assay” value in the test with human NPY2 receptor [1] is 0.146 nM; in the test with human NPY5 receptor, over 5000 nM. In the test with human NPY2 receptor [2], this molecule came in with a Ki of 5.04 nM.

B3: Compound 172 (peptide)
peptide: Isovaleryl-APEK([Ahx-γGlu-C18 diacid])PPEDASPEEIQRYYVSLRHYYNWLTRQRY-NH2
SMILES: CC[C@H](C)[C@H](NC(=O)[C@H](CCC(=O)O)NC(=O)[C@H](CCC(=O)O)NC(=O)[C@@H]1CCCN1C(=O)[C@H](CO)NC(=O)[C@H](C)NC(=O)[C@H](CC(=O)O)NC(=O)[C@H](CCC(=O)O)NC(=O)[C@@H]1CCCN1C(=O)[C@@H]1CCCN1C(=O)[C@H](CCCCNC(=O)CCCCCNC(=O)CC[C@H](NC(=O)CCCCCCCCCCCCCCCCC(=O)O)C(=O)O)NC(=O)[C@H](CCC(=O)O)NC(=O)[C@@H]1CCCN1C(=O)[C@H](C)NC(=O)CC(C)C)C(=O)N[C@@H](CCC(N)=O)C(=O)N[C@@H](CCCNC(=N)N)C(=O)N[C@@H](Cc1ccc(O)cc1)C(=O)N[C@@H](Cc1ccc(O)cc1)C(=O)N[C@H](C(=O)N[C@@H](CO)C(=O)N[C@@H](CC(C)C)C(=O)N[C@@H](CCCNC(=N)N)C(=O)N[C@@H](Cc1c[nH]cn1)C(=O)N[C@@H](Cc1ccc(O)cc1)C(=O)N[C@@H](Cc1ccc(O)cc1)C(=O)N[C@@H](CC(N)=O)C(=O)N[C@@H](Cc1c[nH]c2ccccc12)C(=O)N[C@@H](CC(C)C)C(=O)N[C@H](C(=O)N[C@@H](CCCNC(=N)N)C(=O)N[C@@H](CCC(N)=O)C(=O)N[C@@H](CCCNC(=N)N)C(=O)N[C@@H](Cc1ccc(O)cc1)C(N)=O)[C@@H](C)O)C(C)C
As to B3, the “EC50, HTRF cAMP Gi assay” value is 0.079 nM with human NPY2 receptor [1] and over 5000 nM with human NPY5 receptor. For the same molecule, in the test with human NPY2 receptor [2], the Ki is 0.81 nM.

B4: Compound 146 (peptide)
peptide: Isovaleryl-APEK([Ahx-γGlu-C18 diacid])PEEEATPEELQRYYVSLRHYYNWLTRQRY-NH2
SMILES: CC(C)CC(=O)N[C@@H](C)C(=O)N1CCC[C@H]1C(=O)N[C@@H](CCC(=O)O)C(=O)N[C@@H](CCCCNC(=O)CCCCCNC(=O)CC[C@H](NC(=O)CCCCCCCCCCCCCCCCC(=O)O)C(=O)O)C(=O)N1CCC[C@H]1C(=O)N[C@@H](CCC(=O)O)C(=O)N[C@@H](CCC(=O)O)C(=O)N[C@@H](CCC(=O)O)C(=O)N[C@@H](C)C(=O)N[C@H](C(=O)N1CCC[C@H]1C(=O)N[C@@H](CCC(=O)O)C(=O)N[C@@H](CCC(=O)O)C(=O)N[C@@H](CC(C)C)C(=O)N[C@@H](CCC(N)=O)C(=O)N[C@@H](CCCNC(=N)N)C(=O)N[C@@H](Cc1ccc(O)cc1)C(=O)N[C@@H](Cc1ccc(O)cc1)C(=O)N[C@H](C(=O)N[C@@H](CO)C(=O)N[C@@H](CC(C)C)C(=O)N[C@@H](CCCNC(=N)N)C(=O)N[C@@H](Cc1c[nH]cn1)C(=O)N[C@@H](Cc1ccc(O)cc1)C(=O)N[C@@H](Cc1ccc(O)cc1)C(=O)N[C@@H](CC(N)=O)C(=O)N[C@@H](Cc1c[nH]c2ccccc12)C(=O)N[C@@H](CC(C)C)C(=O)N[C@H](C(=O)N[C@@H](CCCNC(=N)N)C(=O)N[C@@H](CCC(N)=O)C(=O)N[C@@H](CCCNC(=N)N)C(=O)N[C@@H](Cc1ccc(O)cc1)C(N)=O)[C@@H](C)O)C(C)C)[C@@H](C)O
For the molecule B4, the “EC50, HTRF cAMP Gi assay” value with human NPY2 receptor [1] is 0.13 nM; in the test with human NPY5 receptor it was over 5000 nM. The molecule also came in with a Ki with human NPY2 receptor [2] of 8.93 nM.

B5: Compound 183 (peptide)
peptide: Isovaleryl-APEK([Ahx-γGlu-C18 diacid])AEEDASPEEIQRYYVSLRHYYNWLTRQRY-NH2
SMILES: CC[C@H](C)[C@H](NC(=O)[C@H](CCC(=O)O)NC(=O)[C@H](CCC(=O)O)NC(=O)[C@@H]1CCCN1C(=O)[C@H](CO)NC(=O)[C@H](C)NC(=O)[C@H](CC(=O)O)NC(=O)[C@H](CCC(=O)O)NC(=O)[C@H](CCC(=O)O)NC(=O)[C@H](C)NC(=O)[C@H](CCCCNC(=O)CCCCCNC(=O)CC[C@H](NC(=O)CCCCCCCCCCCCCCCCC(=O)O)C(=O)O)NC(=O)[C@H](CCC(=O)O)NC(=O)[C@@H]1CCCN1C(=O)[C@H](C)NC(=O)CC(C)C)C(=O)N[C@@H](CCC(N)=O)C(=O)N[C@@H](CCCNC(=N)N)C(=O)N[C@@H](Cc1ccc(O)cc1)C(=O)N[C@@H](Cc1ccc(O)cc1)C(=O)N[C@H](C(=O)N[C@@H](CO)C(=O)N[C@@H](CC(C)C)C(=O)N[C@@H](CCCNC(=N)N)C(=O)N[C@@H](Cc1c[nH]cn1)C(=O)N[C@@H](Cc1ccc(O)cc1)C(=O)N[C@@H](Cc1ccc(O)cc1)C(=O)N[C@@H](CC(N)=O)C(=O)N[C@@H](Cc1c[nH]c2ccccc12)C(=O)N[C@@H](CC(C)C)C(=O)N[C@H](C(=O)N[C@@H](CCCNC(=N)N)C(=O)N[C@@H](CCC(N)=O)C(=O)N[C@@H](CCCNC(=N)N)C(=O)N[C@@H](Cc1ccc(O)cc1)C(N)=O)[C@@H](C)O)C(C)C
As for B5, the “EC50, HTRF cAMP Gi assay” value with human NPY2 receptor [1] is 0.447 nM; with human NPY5 receptor, over 5000 nM. Further, in the test with human NPY2 receptor [2], the Ki was found to be 18.8 nM.
